Experimental data taken from patent KR20170011863A.

Substrate: B형 간염 바이러스의 표면 항원 (Hepatitis B surface antigen; HBsAg) (Hepatitis B virus)
Assay: cell-based or functional assay

EC50 (effective concentration) of inhibition of HBV infection of HepG2-NTCP cells: 0.015 µg/mL
EC50 (effective concentration) of inhibition of HBV infection of HepG2-NTCP cells, converted to molar concentration (150 kDa): 0.1 nM
B1: GC1102 (HBsAg에 대한 인간 HBV 항체) (antibody, V domains shown)
VH: QVKLLESGGGLVKPGGSLRLSCSASGFSLTKYKMTWVRQAPGKGLEWVSSISSTSRDIDYADSVKGRFTISRDNAKNSLFLQMSSLRVDDTAVYYCTRDGWLWGWDVRSNYYYNALDVWGQGTTVTVSS
VL: ELVMTQSPSSLSASVGDRVTITCRASQGIYNSIAWYQQKPGKAPKLLLYSTSTLLSGVPSRFSGSGSGTDYTLTITNLQPEDFATYYCQQYFVTPETFGQGTKVEIKR
